No end group written: not given here.
Columns and labels:
whole rat hearts = test: Ex vivo Langendorff perfused whole hearts, peptide before 30 min global ischemia, creatine phosphokinase release
Excerpt: In another study performed in support of the invention, the δPKC selective inhibitor peptide, δV1-1, or the activator peptide, ψδRACK, were delivered to whole hearts ex vivo to determine if the peptides have activity when introduced extracellulary to a whole organ. As described in Example 3, δV1-1 and ψδRACK peptides were conjugated to a carrier peptide, a Tat-derived peptide. The peptides were delivered into Langendorff perfused rat hearts prior to induction of an ischemic period. After perfusion with the peptides, global ischemia was effected for 30 minutes. After the 30 minute ischemic period, the amount of creatine phosphokinase (CPK) released was monitored during a 30 minute reperfusion period.
Adult, male rats were anesthetized with i.p. avertin, and their hearts were rapidly removed and cannulated via the aorta for perfusion as described in the art (Colbert, M. C. et al.) using Langendorff set-up. Care was taken to have the hearts perfused within 90 seconds of removal. The hearts were perfused with oxygenated Krebs-Henseleit solution comprised of, in […], NaCl 120; KCl 5.8; NaHCO3 25; NaH2O4 1.2; MgSO4 1.2; CaCl2 1.0; and dextrose 10, pH 7.4 at 37 C.
After a 10-20 minute equilibration period, the hearts were perfused with δV1-1 peptide (SEQ ID NO:4) or with ψδRACK peptide (SEQ ID NO:6), prepared as described in Example 1 but conjugated to a Tat-derived peptide (Tat 47-57, SEQ ID NO:9), for 20 minutes. Perfusion was maintained at a constant flow of 10 mL/min with Krebs-Hanseleit solution containing 0.5 μM of the appropriate peptide. The Langendorff method employed used retrograde flow from the […] and into the coronary arteries, bypassing the pulmonary arteries.
To induce global ischemia, flow was interrupted for 30 minutes. After the ischemic event, the hearts were re-perfused for 30-60 minutes. During reperfusion, ischemia-induced cell damage was determined by measuring the activity of creatine phosphokinase (CPK) (absorbance at 520 nm) in the perfusate using a Sigma kit. […]

mouse model = test: Safety of two injections in the mouse model; assay type: in vivo; conditions: 1 μM final concentration
Excerpt: Blood samples and tissue samples of lung, liver, brain, gut, kidney, etc. were collected from the animals and analyzed at a pathology lab. […] Kidney, liver, brain, and lung functions were normal and all blood analyses were also normal.

εPKC = target: T1, εPKC (Rattus norvegicus, UniProt P09216); test: Translocation of εPKC in primary cardiac myocytes (Western blot); assay type: cell-based; conditions: data not shown
T1 construct: blots probed with anti-δPKC, anti-αPKC and anti-εPKC antibodies; endogenous in cells; host or cells: primary neonatal rat cardiac myocytes
T1 sequence (P09216 1-737): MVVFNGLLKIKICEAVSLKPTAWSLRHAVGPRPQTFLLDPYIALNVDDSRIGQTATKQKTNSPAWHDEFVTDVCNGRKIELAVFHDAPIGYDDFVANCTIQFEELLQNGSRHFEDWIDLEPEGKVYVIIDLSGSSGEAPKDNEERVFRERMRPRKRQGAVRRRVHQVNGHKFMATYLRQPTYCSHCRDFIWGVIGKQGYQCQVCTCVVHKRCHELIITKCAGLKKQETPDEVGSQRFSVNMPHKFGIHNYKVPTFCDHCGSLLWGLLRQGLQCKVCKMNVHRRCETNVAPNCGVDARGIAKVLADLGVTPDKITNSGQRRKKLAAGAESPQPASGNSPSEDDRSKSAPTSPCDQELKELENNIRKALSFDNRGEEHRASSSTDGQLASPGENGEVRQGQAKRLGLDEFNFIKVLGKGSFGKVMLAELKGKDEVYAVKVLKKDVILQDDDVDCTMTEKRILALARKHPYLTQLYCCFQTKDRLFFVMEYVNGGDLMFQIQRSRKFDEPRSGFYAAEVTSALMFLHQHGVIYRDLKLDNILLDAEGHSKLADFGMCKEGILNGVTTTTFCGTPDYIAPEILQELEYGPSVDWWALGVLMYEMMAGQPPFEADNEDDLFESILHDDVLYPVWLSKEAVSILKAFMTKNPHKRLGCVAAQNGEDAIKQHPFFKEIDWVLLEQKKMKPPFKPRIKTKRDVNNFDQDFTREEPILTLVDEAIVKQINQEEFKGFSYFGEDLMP
Protocol: As described in Example 1, the δV1-1 and ψδRACK peptides were analyzed to determine whether the peptides had activity, and if so, whether the activity was as an agonist or an antagonist of δPKC. As will be shown, δV1-1, δV1-2 and δV1-5 are δPKC antagonists and ψδRACK is a δPKC agonist. In these studies, the δV1-1 and ψδRACK peptides were modified with a carrier peptide by cross-linking via an N-terminal Cys-Cys bond to the Drosophila Antennapedia homeodomain (SEQ ID NO:8; Théodore, L., et al.; Johnson, J. A. et al., 1996b). […] Translocation of δPKC isozyme was assessed by Western blot analysis cystosolic and particulate fractions of treated cells. Subcellular localization of δPKC isozyme was assessed by immunofluorescence by probing the blot with […], and anti-εPKC antibodies. Translocation was expressed as the amount of isozyme in the particulate fraction over the amount of isozyme in non-treated cells. […]
Translocation of δPKC isozyme was assessed by using δPKC isozyme-specific antibodies in Western blot analysis (Santa Cruz Biotechnology). […] Subcellular localization of dPKC isozymes was assessed by chemiluminescence of blots probed with anti-δPKC, anti-αPKC and anti-εPKC antibodies. […] Changes in translocation of δPKC isozyme were also determined by immunofluoresence study of treated and fixed cells (Gray et al., 1997). […]

[1] = 0.5 μM Tat-conjugated peptide for 20 minutes before 30 minute global ischemia

| Sequence | release of creatine kinase (whole rat hearts; 0.5 μM Tat-conjugated peptide before 30 minute global ischemia, reperfusion period) | protection against ischemic damage in an intact heart (whole rat hearts; [1]) | adverse effect of two injections (mouse model; mouse model) | blood analyses (mouse model; two injections) | kidney, liver, brain, and lung functions (mouse model; two injections) | translocation of εPKC (εPKC) | enhancement of cardiac damage induced by ischemia (CPK release) (whole rat hearts; [1]) |
| --- | --- | --- | --- | --- | --- | --- | --- |
| SFNSYELGSL (also: conjugated to Antennapedia or Tat carrier; listed as Rattus norvegicus) [δV1-1, tested conjugated to Antennapedia or Tat carrier] | decreased | greater than 50% | no adverse effect | normal | normal | did not inhibit |  |
| MRAAEDPM (also: conjugated to Antennapedia or Tat carrier; listed as Rattus norvegicus) [ψδRACK, tested conjugated to Antennapedia or Tat carrier] |  |  |  |  |  | without affecting | about 30% |

Source: patent US6855693B2, “Peptides for activation and inhibition of δPKC” (The Board of Trustees of the Leland Stanford Junior …, priority 2001, dated 2005)
